Data reported in patent US20020127539A1, “Assays for identifying receptors having alterations in signaling” (priority 2000, published 2002).
Residue numbers refer to the chain shown, from its start.

T1: CCK-BR (Homo sapiens, UniProt P32239, L325E)
T1 sequence (P32239 1-447 L325E): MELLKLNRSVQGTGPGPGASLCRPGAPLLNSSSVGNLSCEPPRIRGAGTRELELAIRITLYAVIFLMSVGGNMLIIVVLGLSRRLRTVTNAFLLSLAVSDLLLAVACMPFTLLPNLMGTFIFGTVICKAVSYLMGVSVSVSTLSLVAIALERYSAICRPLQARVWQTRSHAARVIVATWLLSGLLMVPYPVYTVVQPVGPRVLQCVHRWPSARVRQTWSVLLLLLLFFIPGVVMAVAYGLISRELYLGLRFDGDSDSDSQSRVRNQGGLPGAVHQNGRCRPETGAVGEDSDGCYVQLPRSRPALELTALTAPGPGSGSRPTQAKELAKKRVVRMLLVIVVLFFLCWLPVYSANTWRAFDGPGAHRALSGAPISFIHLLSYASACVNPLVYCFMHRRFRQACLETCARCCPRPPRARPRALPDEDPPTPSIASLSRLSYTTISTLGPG

B1: Asn150Ala rat mu opioid receptor: rat mu opioid receptor with Asn to Ala point mutation at position 150 of SEQ ID NO: 1 (protein, UniProt P33535 1-398, looked up, variant N150A)
Mu-type opioid receptor: MDSSTGPGNTSDCSDPLAQASCSPAPGSWLNLSHVDGNQSDPCGLNRTGLGGNDSLCPQTGSPSMVTAITIMALYSIVCVVGLFGNFLVMYVIVRYTKMKTATNIYIFNLALADALATSTLPFQSVNYLMGTWPFGTILCKIVISIDYYAMFTSIFTLCTMSVDRYIAVCHPVKALDFRTPRNAKIVNVCNWILSSAIGLPVMFMATTKYRQGSIDCTLTFSHPTWYWENLLKICVFIFAFIMPVLIITVCYGLMILRLKSVRMLSGSKEKDRNLRRITRMVLVVVAVFIVCWTPIHIYVIIKALITIPETTFQTVSWHFCIALGYTNSCLNPVLYAFLDENFKRCFREFCIPTSSTIEQQNSTRVRQNTREHPSTANTVDRTNHQLENLEAETAPLP
B2: wild-type rat mu opioid receptor: wild-type rat mu opioid receptor expressed from an expression vector in HEK293 cells (protein, UniProt P33535 1-398, looked up)
Mu-type opioid receptor: B1 Mu-type opioid receptor with A150N
B3: Leu325Glu CCK-BR mutant: human CCK-BR with point mutation Leu325Glu, constitutively active (protein, UniProt P32239 1-447, looked up, variant L325E)
Gastrin/cholecystokinin type …: T1 sequence (P32239 1-447 L325E)

Key:
rat mu opioid receptor [1] = molecular target: T2, rat mu opioid receptor (Rattus norvegicus, UniProt P33535, N150A); assay: SRE-Luc/Gq5i luciferase reporter assay in HEK293 cells; assay type: cell-based
T2 construct: expressed in transfected cells; host or cells: HEK293
Protocol: (§1) Reagents & Solutions: The cell culture media used in the assays described below was Gibco BRL #12100-046. This media was made according to manufacturer's recipe, pH adjusted to 7.2, filtered (0.22 micron pore), and supplemented with 1% Pen/Strep (Gibco #15140-122; 100% penicillin G 10,000 units/ml, and streptomycin 10,000 μg/ml) and 10% fetal bovine serum. Cell culture media lacking 10% fetal bovine serum was also generated. DNA used in the transfection experiments was purified and quantitated by measuring the absorbance at OD260. A LucLite Luciferase Assay Kit (Packard) was used to quantitate luciferase activity. Transfections were carried out using LipofectAMINE Reagent (Gibco #18324-012).
(§2) Constitutive activity of the Asn150Ala mutant rat mu opioid receptor was assessed using a luciferase assay. The rat mu opioid receptor is a Gαi coupled receptor. Therefore we chose to use the Gq5i reporter system, described in detail above (Broach and Thorner, supra), which switches the signaling pathway from Gαi to Gαq for reliable positive readout. HEK293 cells were transfected with the reporter construct SRE-Luc, an expression vector containing nucleic acid encoding Gq5i (Broach and Thorner, supra), and an expression vector containing nucleic acid encoding either the wild-type or the Asn150Ala mutant rat mu opioid receptor. Basal and ligand-stimulated luciferase activity was measured. The ligand used in this assay was [D-Ala^2-MePhe^4, Gly-ol^5]enkephalin] (DAMGO). As a negative control, HEK293 cells were transfected with pcDNA1 (empty vector DNA), SRE-Luc, and the expression vector containing nucleic acid encoding Gq5i (Broach and Thorner, supra).
(§3) The luciferase assay was carried out as follows. On day 1, HEK293 cells in a T75 flask were washed with 15 ml serum-free media (or PBS), trypsinized with 5 ml 0.05% trypsin-EDTA (Gibco #25300-062), incubated at 37° C. for 3 minutes at which time 6-7 ml complete HEK293 media (Gibco #12100-046) and 10% Fetal Bovine Serum (Intergen #1050-90) were added. Thereafter, cells were collected in 50 ml centrifuge tubes, pelleted at 800-900 rpm (RCF ˜275), and resuspend in 20 ml complete media. The cells were counted using a haemocytometer and diluted to 85,000 cells/ml in complete media. Using a repeat pipettor or cell plater, 100 μl of cells were added to each well of a Primaria 96-well plate (Falcon #353872). Cells were then incubated at 37° C., 5% CO2 until use at 48 hours.
(§4) On day 3, cells were transfected using LipofectAMINE™ according to the manufacturer's protocol (Gibco #18324-012, Rockville, Md.).
(§5) On day 4, cells were stimulated as follows. Ligands for the receptor, either DAMGO or a non-peptide ligand (e.g., naltrexene or nalonin), were diluted to a desired concentration in serum-free media containing 0.15 mM PMSF (or other protease inhibitor(s)). The transfection media was then completely removed from cells and 50-100 μl stimulation media (i.e., media containing candidate ligands or the corresponding ligand free solvent) was added to each well. The cells were incubated for the desired time (standard is overnight) at 37° C., 5% CO2, although the optimal stimulation time may vary depending on the particular receptor used. The optimal incubation time may be determined systematically by testing a range of incubation times and determining which one yields the highest level of stimulation. For concomitant assessment of two ligands (e.g., ligand induced inhibition of forskolin stimulated CRE activity) each stimulus is prepared at two times the desired final concentration and mixed in equal volumes prior to addition to cells.
(§6) On day 5, an assay for luciferase expression was carried out according to the manufacturer's instructions (Packard, Meridin, Conn.)

rat mu opioid receptor [2] = assay: as above; assay type: cell-based; conditions: HEK293, SRE + Gq5i; for Average Ligand Stimulated Activity (Light Emission): ligand DAMGO; for Average Basal Activity (Light Emission): no ligand
Protocol: as §1, §2, §3, §4, §5, §6

rat mu opioid receptor [3] = molecular target: T2, rat mu opioid receptor; assay: CRE-Luc luciferase reporter assay with forskolin stimulation; assay type: cell-based; conditions: 0.5 μM forskolin; a decrease means more Gαi signaling
Description: Similarly, a constitutively active rat mu opioid receptor was identified using a reporter construct sensitive to Gαi coupling (see FIG. 3). The response element employed in this assay was the cAMP-response element (CRE), which is sensitive to Gαi mediated changes in intracellular levels of cAMP. Signaling through the rat mu opioid receptor via Gαi inhibits adenylate cyclase, causing a decrease in intracellular cAMP. Therefore, an increase in rat mu opioid receptor signaling induces a decrease in CRE mediated reporter activity.
Prior to the present invention, Gαi-mediated decreases in intracellular cAMP were measured by (1) stimulating cells with forskolin, which causes receptor-independent activation of adenylate cyclase and generates an intracellular pool of cAMP; (2) stimulating the cells with ligand; and (3) measuring the ligand-induced, receptor-dependent Gαi-mediated decrease in the intracellular cAMP pool (e.g., using a radioimmunoassay (e.g., New England Nuclear, Boston, Mass.)). […] The basal (and ligand-induced) level of receptor activity was then measured using a standard luciferase assay (see FIG. 3). Coexpression of the receptor of interest with a luciferase reporter gene construct allows one to measure light emission as a readout for basal signaling.

CCK-BR [4] = molecular target: T1, CCK-BR; assay: SMS-Luc luciferase reporter assay in HEK293 cells; assay type: cell-based; set-up: expressed in transfected cells; host or cells: HEK293; conditions: FIG. 2
Description: HEK293 cells were transfected (as described above) with SMS-Luc and an expression vector encoding any one of pcDNA1, wild-type CCK-BR, or Leu325Glu CCK-BR.

CCK-BR [5] = molecular target: T1, CCK-BR; set-up: expressed in transfected cells; host or cells: COS-7; conditions: COS-7, absence of agonist; cited from earlier work

Row | Molecule | basal activity relative to the maximal level of ligand-stimulated second messenger signaling (rat mu opioid receptor [1]) | stimulation of basal level activity (increase in basal activity vs wild-type) (rat mu opioid receptor [1]; HEK293, SRE + Gq5i, listed as Asn150Ala mutant mu opioid receptor) | Average Ligand Stimulated Activity (Light Emission) (rat mu opioid receptor [2]) | Average Basal Activity (Light Emission) (rat mu opioid receptor [2]) | basal CRE-Luc reporter activity compared to wild-type receptor (rat mu opioid receptor [3]) | basal level activity compared to wild-type CCK-BR (CCK-BR [4]) | constitutive production of inositol phosphates (CCK-BR [5])
1 | B1 | exceeded 50% | approximately 6.5 fold | 86,996 | *56,498 | reduction in basal activity |  | 
2 | B2 |  |  | 87,461 | 8,436 |  |  | 
3 | B3 |  |  |  |  |  | increased basal level activity | levels exceeding wild-type CCK-BR
